Source: US20230331862A1 (SHANGHAI GENBASE BIOTECHNOLOGY, published 2023)

Legend:
[1] = biological target: T1, CEACAM5 (CD66e) on tumour cells (human, UniProt P06731 35-685, glycosylated (natural, as on tumour cells)); assay: flow cytometry on Lovo monoclonal clone 4-1, fluorescent secondary antibody
T1 construct: whole, on cells; One molecule for CEACAM5 on all three cell lines; the cell line is named under assay; also called natural CEACAM5 antigen; Lovo cells
T1 sequence (looked up): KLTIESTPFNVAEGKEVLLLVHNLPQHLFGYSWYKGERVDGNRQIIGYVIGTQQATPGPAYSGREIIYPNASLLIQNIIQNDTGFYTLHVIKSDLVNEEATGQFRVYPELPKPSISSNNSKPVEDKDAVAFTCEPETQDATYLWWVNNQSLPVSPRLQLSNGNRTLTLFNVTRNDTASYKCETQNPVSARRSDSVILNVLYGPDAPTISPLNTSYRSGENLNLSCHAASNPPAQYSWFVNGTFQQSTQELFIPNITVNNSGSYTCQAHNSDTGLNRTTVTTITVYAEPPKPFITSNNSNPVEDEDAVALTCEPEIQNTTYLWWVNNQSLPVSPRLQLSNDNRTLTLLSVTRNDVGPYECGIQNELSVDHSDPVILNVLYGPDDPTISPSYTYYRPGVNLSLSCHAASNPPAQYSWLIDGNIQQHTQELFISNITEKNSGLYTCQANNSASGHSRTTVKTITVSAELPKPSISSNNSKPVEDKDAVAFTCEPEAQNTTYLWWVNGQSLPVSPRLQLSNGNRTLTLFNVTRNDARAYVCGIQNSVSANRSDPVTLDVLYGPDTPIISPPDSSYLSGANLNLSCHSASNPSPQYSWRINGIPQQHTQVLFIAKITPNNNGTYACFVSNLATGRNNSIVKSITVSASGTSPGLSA
Experimental: (§1) After labeling, anti-mouse Fc-PE fluorescence-labeled secondary antibody was added, sorted into 96-well plate by BD FACS Aria, after monoclonal culture was carried out, MN14 was used to detect the expression of monoclonal CEACAM5, and the results were as follows: […]

[2] = biological target: T1, CEACAM5 (CD66e) on tumour cells; assay: flow cytometry on Lovo monoclonal clone 5-2, fluorescent secondary antibody
Experimental: as §1

[3] = biological target: T1, CEACAM5 (CD66e) on tumour cells; assay: flow cytometry on Lovo monoclonal clone 8-1, fluorescent secondary antibody
Experimental: as §1

[4] = biological target: T1, CEACAM5 (CD66e) on tumour cells; assay: flow cytometry on Lovo monoclonal clone 7-2, fluorescent secondary antibody
Experimental: as §1

[5] = biological target: T1, CEACAM5 (CD66e) on tumour cells; assay: flow cytometry on Lovo monoclonal clone 3-2, fluorescent secondary antibody
Experimental: as §1

[6] = biological target: T1, CEACAM5 (CD66e) on tumour cells; assay: flow cytometry on Lovo monoclonal clone 1-2, fluorescent secondary antibody
Experimental: as §1

[7] = biological target: T1, CEACAM5 (CD66e) on tumour cells; assay: flow cytometry on Lovo monoclonal clone 8-2, fluorescent secondary antibody
Experimental: as §1

[8] = biological target: T1, CEACAM5 (CD66e) on tumour cells; assay: flow cytometry on Lovo monoclonal clone 3-1, fluorescent secondary antibody
Experimental: as §1

[9] = biological target: T1, CEACAM5 (CD66e) on tumour cells; assay: flow cytometry on Lovo monoclonal clone 1-1, fluorescent secondary antibody
Experimental: as §1

[10] = biological target: T1, CEACAM5 (CD66e) on tumour cells; assay: flow cytometry on Lovo monoclonal clone 2-2, fluorescent secondary antibody
Experimental: as §1

[11] = biological target: T1, CEACAM5 (CD66e) on tumour cells; assay: flow cytometry on Lovo monoclonal clone 2-1, fluorescent secondary antibody
Experimental: as §1

[12] = biological target: T1, CEACAM5 (CD66e) on tumour cells; assay: flow cytometry on Lovo monoclonal clone 5-1, fluorescent secondary antibody
Experimental: as §1

[13] = biological target: T1, CEACAM5 (CD66e) on tumour cells; assay: flow cytometry on Lovo monoclonal clone 7-1, fluorescent secondary antibody
Experimental: as §1

[14] = biological target: T1, CEACAM5 (CD66e) on tumour cells; assay: flow cytometry on Lovo monoclonal clone 4-2, fluorescent secondary antibody
Experimental: as §1

[15] = biological target: T1, CEACAM5 (CD66e) on tumour cells; assay: flow cytometry on Lovo monoclonal clone 6-1, fluorescent secondary antibody
Experimental: as §1

[16] = biological target: T1, CEACAM5 (CD66e) on tumour cells; assay: flow cytometry on Lovo monoclonal clone 6-2, fluorescent secondary antibody
Experimental: as §1

CEACAM5 positive ratio, % [1]: 93.7%
CEACAM5 positive ratio, % [2]: 96.9%
CEACAM5 positive ratio, % [3]: 97.9%
CEACAM5 positive ratio, % [4]: 96.9%
CEACAM5 positive ratio, % [5]: 95.9%
CEACAM5 positive ratio, % [6]: 95.6%
CEACAM5 positive ratio, % [7]: 96.8%
CEACAM5 positive ratio, % [8]: 97.8%
CEACAM5 positive ratio, % [9]: 90.5%
CEACAM5 positive ratio, % [10]: 96.4%
CEACAM5 positive ratio, % [11]: 95.6%
CEACAM5 positive ratio, % [12]: 76.6%
CEACAM5 positive ratio, % [13]: 93.9%
CEACAM5 positive ratio, % [14]: 82.7%
CEACAM5 positive ratio, % [15]: 98.6%
CEACAM5 positive ratio, % [16]: 88.1%
B1: anti-CEACAM5 antibody hMN14 (antibody, human IgG1, kappa, V domains shown)
VH: EVQLVESGGGVVQPGRSLRLSCSASGFDFTTYWMSWVRQAPGKGLEWIGEIHPDSSTINYAPSLKDRFTISRDNAKNTLFLQMDSLRPEDTGVYFCASLYFGFPWFAYWGQGTPVTVSS
VL: DIQLTQSPSSLSASVGDRVTITCKASQDVGTSVAWYQQKPGKAPKLLIYWTSTRHTGVPSRFSGSGSGTDFTFTISSLQPEDIATYYCQQYSLYRSFGQGTKVEIKR
notes: T0002 prints whole heavy and light chains under the labels 'hMN14 VH' and 'hMN14 VL'
